According to patent publication US20250270315A1 (ELPISCIENCE SUZHOU BIOPHARMA, published 2025):

Columns and labels:
[1] = target: T1, full length human SIRPα v1 stably expressed on CHOK1 or 293F cells (human, UniProt P78324 31-504); experiment: FACS, CHOK1-hSIRPα v1 cells
T1 construct: whole, on cells; also called CHOK1-human SIRPα v1; CHOK1-hSIRPα v1

[2] = target: T2, human SIRPα v1 ECD recombinant protein (tag not given) (human, UniProt P78324 31-373); experiment: competitive ELISA, mFc-CD47 ECD on coated SIRPα v1 ECD
T2 construct: extracellular domain; also called biotin labeled soluble human SIRPα v1 ECD recombinant protein; ELISA microplate coated human SIRPα v1 ECD
T2 sequence (P78324 31-373): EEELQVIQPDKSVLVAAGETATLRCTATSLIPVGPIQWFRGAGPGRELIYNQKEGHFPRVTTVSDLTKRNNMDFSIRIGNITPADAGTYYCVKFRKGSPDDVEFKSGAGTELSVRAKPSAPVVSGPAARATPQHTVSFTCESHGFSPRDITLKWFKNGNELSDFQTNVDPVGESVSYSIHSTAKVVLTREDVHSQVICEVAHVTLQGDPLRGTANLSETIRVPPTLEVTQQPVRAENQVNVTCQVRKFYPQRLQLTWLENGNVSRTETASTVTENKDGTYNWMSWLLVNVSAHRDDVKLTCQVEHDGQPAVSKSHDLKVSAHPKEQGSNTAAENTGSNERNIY
Method: Competitive ELISA assay was used to determine whether the purified chimeric antibodies can block CD47 and SIRPα interaction. Briefly, antibody and mFc tagged human CD47 ECD recombinant protein were co-incubated with ELISA microplate coated human SIRPα v1 ECD (FIGS. 6A and 6B) or human SIRPα v2 ECD (FIGS. 7A and 7B) recombinant protein. After washing, HRP labeled anti-mouse Fc 2nd antibody (Sigma) was added and incubated at 37° C. for 1 hour. Then, 100 μl/well of TMB solution (Biotechnology) was added. After incubation for 15 minutes at room temperature, the reaction was stopped by the addition of 50 μl of 1N HCl. OD 450 nm was read. Blocking ratio was determined by blockade of human CD47 ECD recombinant protein binding to ELISA microplate coated human SIRPα ECD recombinant protein. Other than 005, all antibodies as tested can block interaction between human CD47 and different human SIRPα variants.
The humanized antibodies were tested for the ability to block CD47 and SIRPα interaction with competitive ELISA assay (refer to methods described in Example 4.2.3.).

[3] = target: Human SIRPα v1 (antigen of the Octet and Biacore affinity measurements) (human, UniProt P78324 31-370, limits assumed); experiment: BLI (Octet), 1:1 binding model
Chain of Human SIRPα v1 (antigen of the Octet and Biacore affinity measurements) (P78324 31-370 limits assumed): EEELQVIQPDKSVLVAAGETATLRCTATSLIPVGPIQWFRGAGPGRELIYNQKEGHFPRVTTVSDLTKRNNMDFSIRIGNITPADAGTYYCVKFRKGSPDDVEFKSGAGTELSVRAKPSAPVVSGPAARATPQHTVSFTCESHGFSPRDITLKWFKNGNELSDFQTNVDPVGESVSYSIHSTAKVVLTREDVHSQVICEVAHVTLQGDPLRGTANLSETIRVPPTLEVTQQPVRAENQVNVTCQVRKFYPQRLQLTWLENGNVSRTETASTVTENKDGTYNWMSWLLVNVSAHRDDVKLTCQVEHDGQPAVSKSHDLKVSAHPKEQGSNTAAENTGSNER
Method: The purified chimeric antibodies were characterized for binding affinity against human SIRPα v1, human SIRPα v2 using Bio-Layer Interferometry technology (Octet system). The association and dissociation curves were fit with 1:1 binding model, and the Ka/Kd/KD values for each antibody were calculated.

T1 sequence (P78324 31-504): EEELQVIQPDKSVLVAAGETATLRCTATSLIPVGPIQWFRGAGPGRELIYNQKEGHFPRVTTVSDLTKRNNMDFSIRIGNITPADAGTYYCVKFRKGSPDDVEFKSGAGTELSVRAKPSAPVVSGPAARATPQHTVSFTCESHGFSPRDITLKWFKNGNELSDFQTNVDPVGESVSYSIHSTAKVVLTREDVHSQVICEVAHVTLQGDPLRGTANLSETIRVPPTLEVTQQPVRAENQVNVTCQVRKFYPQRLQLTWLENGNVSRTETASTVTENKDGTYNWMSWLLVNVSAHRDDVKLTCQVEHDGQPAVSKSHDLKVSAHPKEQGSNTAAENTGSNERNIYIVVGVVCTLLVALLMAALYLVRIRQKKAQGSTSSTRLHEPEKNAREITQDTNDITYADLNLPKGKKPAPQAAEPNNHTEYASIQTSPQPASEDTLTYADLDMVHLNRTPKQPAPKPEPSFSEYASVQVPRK

B1: 025c (antibody, V domains shown)
VH: EVQLQQSGAELVKPGASVKLSCTASGFNIKDYYMHWVKQRTEQGLEWIGRIDPEDGETKYAPKFQGKATITADTSSNTAYLQLSSLTSEDTAVYYCDRGLAYWGQGTLVTVSA
VL: QIVLTQSPAIMSASPGEKVTLTCSASSSVSSSYLYWYQQKPGSSPKLWIYSTSNLASGVPARFSGSGSGTSYSLTISSMEAEDAASYFCHQWSSYPYTFGGGTKLEIK
notes: also called chimeric antibody 025c; parental antibody of 025c
- EC50 [1]: 1.49 nM
- TOP MFI [1]: 77600 MFI
- IC50 [2]: 2.03 nM
- TOP blocking (%) [2]: 97.5%
- Kd [3]: 2.46 nM
- koff [3]: 0.00156 s⁻¹
- kon [3]: 636000 M⁻¹ s⁻¹
